Measured values from paper PMC11440629 (Advanced Functional Materials, 2023).

Target: the molecule itself
Assay: release from hydrogel

B1: NT2RepCT (other)
chain: MSHTTPWTNPGLAENFMNSFMQGLSSMPGFTASQLDDMSTIAQSMVQSIQSLAAQGRTSPNKLQALNMAFASSMAEIAASEEGGGSLSTKTSSIASAMSNAFLQTTGVVNQPFINEITQLVSMFAQAGMNDVSAGNSGRGQGGYGQGSGGNAAAAAAAAAAAAAAAGQGGQGGYGRQSQGAGSAAAAAAAAAAAAAAGSGQGGYGGQGQGGYGQSGNSVTSGGYGYGTSAAAGAGVAAGSYAGAVNRLSSAEAASRVSSNIAAIASGGASALPSVISNIYSGVVASGVSSNEALIQALLELLSALVHVLSSASIGNVSSVGVDSTLNVVQDSVGQYVG
Does B1 bind?
Result: binds
